Results taken from patent US20260174875A1 (Novo Nordisk A/S, priority 2023, published 2026).
Each block holds one binder with its values, some of them ahead of it. Numbered stars: 1 amine (or outer) side, 2 acyl side, 3 side chain; on linkers, the order of the positions; unused ones are H or OH. Square brackets hold non-standard residues; d marks the D form. Side chains are listed from the residue outwards. * marks the point of attachment. C18 diacid = O=C(O)CCCCCCCCCCCCCCCCC(=O)*; C16 diacid = O=C(O)CCCCCCCCCCCCCCC(=O)*; γGlu = O=C(O)[C@H](CCC(=O)[*:2])N[*:1]; Chem. 28 = not defined here; AEEA = NCCOCCOCC(=O)O; Aib = CC(C)(N)C(=O)O

Key:
Assay in all cases: cell-based or functional assay
human GLP-1 receptor [1] = biological target: T1, human GLP-1 receptor (human, UniProt P43220 24-463)
human GIP receptor [2] = biological target: T2, human GIP receptor (human, UniProt P48546 22-466)
T2 sequence (looked up): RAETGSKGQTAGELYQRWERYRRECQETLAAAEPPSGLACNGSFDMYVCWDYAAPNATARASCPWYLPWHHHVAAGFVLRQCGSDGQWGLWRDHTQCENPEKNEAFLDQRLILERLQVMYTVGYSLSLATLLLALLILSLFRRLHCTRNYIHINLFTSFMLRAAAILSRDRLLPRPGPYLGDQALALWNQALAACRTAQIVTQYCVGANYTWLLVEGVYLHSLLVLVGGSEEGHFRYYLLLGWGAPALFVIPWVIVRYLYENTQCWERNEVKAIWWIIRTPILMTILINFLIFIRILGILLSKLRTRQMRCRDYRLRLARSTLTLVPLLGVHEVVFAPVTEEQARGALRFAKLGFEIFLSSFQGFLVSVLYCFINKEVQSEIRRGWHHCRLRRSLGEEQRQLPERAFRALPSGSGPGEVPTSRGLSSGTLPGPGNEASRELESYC

[3] = biological target: T3, human amylin-3(a) receptor (human, UniProt P30988 25-474; O60896 24-148)
T3 sequence (looked up) 1: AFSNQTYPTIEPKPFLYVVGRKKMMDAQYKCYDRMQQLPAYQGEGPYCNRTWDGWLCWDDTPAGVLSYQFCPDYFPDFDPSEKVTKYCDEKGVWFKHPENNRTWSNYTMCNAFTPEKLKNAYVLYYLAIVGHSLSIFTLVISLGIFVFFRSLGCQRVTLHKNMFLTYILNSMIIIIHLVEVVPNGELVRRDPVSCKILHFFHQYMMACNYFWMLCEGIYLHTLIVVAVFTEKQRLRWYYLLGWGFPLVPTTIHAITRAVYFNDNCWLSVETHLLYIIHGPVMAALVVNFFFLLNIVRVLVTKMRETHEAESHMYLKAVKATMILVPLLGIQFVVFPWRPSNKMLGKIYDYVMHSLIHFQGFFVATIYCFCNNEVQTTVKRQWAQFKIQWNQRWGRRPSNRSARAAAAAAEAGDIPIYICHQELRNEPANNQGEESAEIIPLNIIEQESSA
T3 sequence (looked up) 2: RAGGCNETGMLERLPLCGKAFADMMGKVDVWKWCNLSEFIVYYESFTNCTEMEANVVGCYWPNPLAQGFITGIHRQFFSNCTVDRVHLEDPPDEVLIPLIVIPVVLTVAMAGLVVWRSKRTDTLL

human GLP-1 receptor [4] = biological target: T1, human GLP-1 receptor; remark: listed apart in the source
human GIP receptor [5] = biological target: T2, human GIP receptor; remark: listed apart in the source
[6] = biological target: T3, human amylin-3(a) receptor; remark: listed apart in the source

B1: Compound 51 (peptide)
peptide: H[Aib]HGTFTSDYSILLEEQAAREFIEWLLAGGPSSGALAQTLAQTLASHLSTAQTQRLSAELHK(Chem. 28)LATLPRTETGSGSP-NH2
modifications: reading uncertain
hGLP-1R Potency, no HSA, EC50 [pM] (human GLP-1 receptor [1]): 7.68 pM | hGIPR Potency, no HSA, EC50 [pM] (human GIP receptor [2]): 8.37 pM | hAMYR3 Potency, no HSA, EC50 [pM] [3]: 6.19 pM | hGLP-1R Potency, 1% HSA, EC50 [pM] (human GLP-1 receptor [4]): 32.2 pM | hGIPR Potency, 1% HSA, EC50 [pM] (human GIP receptor [5]): 61.9 pM | hAMYR3 Potency, 1% HSA, EC50 [pM] [6]: 57.1 pM

B4: Compound 52 (peptide)
peptide: Y[Aib]EGTFTSDYSILLEEQAAREFIEWLLAGGPSSGAGQAPGQAPGASHLSTAQTQRLSAELHK(Chem. 28)LATLPRTETGSGSP-NH2
modifications: reading uncertain
hGLP-1R Potency, no HSA, EC50 [pM] (human GLP-1 receptor [1]): 11 pM | hGIPR Potency, no HSA, EC50 [pM] (human GIP receptor [2]): 1.83 pM | hAMYR3 Potency, no HSA, EC50 [pM] [3]: 2.85 pM | hGLP-1R Potency, 1% HSA, EC50 [pM] (human GLP-1 receptor [4]): 26.9 pM | hGIPR Potency, 1% HSA, EC50 [pM] (human GIP receptor [5]): 6.79 pM | hAMYR3 Potency, 1% HSA, EC50 [pM] [6]: 119 pM

B6: Compound 56 (peptide)
peptide: Y[Aib]EGTFTSDYSILLEEQAAREFIEWLLAGGPSSGAGQAPGQAPGASHLSTAQTQRLSAELHRLK(Chem. 28)TLPRTETGSGSP-NH2
modifications: reading uncertain
hGLP-1R Potency, no HSA, EC50 [pM] (human GLP-1 receptor [1]): 18.2 pM | hGIPR Potency, no HSA, EC50 [pM] (human GIP receptor [2]): 2.65 pM | hAMYR3 Potency, no HSA, EC50 [pM] [3]: 2.36 pM | hGLP-1R Potency, 1% HSA, EC50 [pM] (human GLP-1 receptor [4]): 58.4 pM | hGIPR Potency, 1% HSA, EC50 [pM] (human GIP receptor [5]): 8.48 pM | hAMYR3 Potency, 1% HSA, EC50 [pM] [6]: 44.9 pM

B8: Compound 57 (peptide)
peptide: Y[Aib]EGTFTSDYSILLEEQAAREFIEWLLAGGPSSGAGQAPGQAPGASHLSTAQTQRLSAELHRLATLPK(Chem. 28)TETGSGSP-NH2
modifications: reading uncertain
hGLP-1R Potency, no HSA, EC50 [pM] (human GLP-1 receptor [1]): 12.8 pM | hGIPR Potency, no HSA, EC50 [pM] (human GIP receptor [2]): 1.98 pM | hAMYR3 Potency, no HSA, EC50 [pM] [3]: 3 pM | hGLP-1R Potency, 1% HSA, EC50 [pM] (human GLP-1 receptor [4]): 29.6 pM | hGIPR Potency, 1% HSA, EC50 [pM] (human GIP receptor [5]): 5.85 pM | hAMYR3 Potency, 1% HSA, EC50 [pM] [6]: 85 pM

B9: Compound 59 (peptide)
peptide: Y[Aib]EGTFTSDYSILLEEQAAREFIEWLLAGGPSSGALAQTLAQTLASHLSTAQTQRLSAELHK([AEEA-AEEA-γGlu-C16 diacid])LATLPRTETGSGSP-NH2
hGLP-1R Potency, no HSA, EC50 [pM] (human GLP-1 receptor [1]): 50.6 pM | hGIPR Potency, no HSA, EC50 [pM] (human GIP receptor [2]): 7.72 pM | hAMYR3 Potency, no HSA, EC50 [pM] [3]: 3.85 pM | hGLP-1R Potency, 1% HSA, EC50 [pM] (human GLP-1 receptor [4]): 39.8 pM | hGIPR Potency, 1% HSA, EC50 [pM] (human GIP receptor [5]): 27.2 pM | hAMYR3 Potency, 1% HSA, EC50 [pM] [6]: 24.2 pM

Now from value to binder:

hGLP-1R Potency, no HSA, EC50 [pM] (human GLP-1 receptor [1]): 4.13 pM | hGIPR Potency, no HSA, EC50 [pM] (human GIP receptor [2]): 2.26 pM | hAMYR3 Potency, no HSA, EC50 [pM] [3]: 3.35 pM | hGLP-1R Potency, 1% HSA, EC50 [pM] (human GLP-1 receptor [4]): 11.5 pM | hGIPR Potency, 1% HSA, EC50 [pM] (human GIP receptor [5]): 47.2 pM | hAMYR3 Potency, 1% HSA, EC50 [pM] [6]: 28.8 pM
B2: Compound 62 (peptide)
peptide: H[Aib]HGTFTSDYSILLEEQAAREFIEWLLAGGPSK([AEEA-AEEA-γGlu-C16 diacid])GEASQLSTAALGRLSAELHRLADLPRTETGSGSP-NH2

hGLP-1R Potency, no HSA, EC50 [pM] (human GLP-1 receptor [1]): 15.4 pM | hGIPR Potency, no HSA, EC50 [pM] (human GIP receptor [2]): 4.28 pM | hAMYR3 Potency, no HSA, EC50 [pM] [3]: 3.66 pM | hGLP-1R Potency, 1% HSA, EC50 [pM] (human GLP-1 receptor [4]): 105 pM | hGIPR Potency, 1% HSA, EC50 [pM] (human GIP receptor [5]): 37 pM | hAMYR3 Potency, 1% HSA, EC50 [pM] [6]: 190 pM
B3: Compound 67 (peptide)
peptide: Y[Aib]EGTFTSDYSILLEEQAAREFIEWLLAGGPSRGEASELSTAALGRLSAELHK([AEEA-AEEA-γGlu-C18 diacid])LATLPRTETGSGSP-NH2

hGLP-1R Potency, no HSA, EC50 [pM] (human GLP-1 receptor [1]): 4.77 pM | hGIPR Potency, no HSA, EC50 [pM] (human GIP receptor [2]): 1.6 pM | hAMYR3 Potency, no HSA, EC50 [pM] [3]: 2.86 pM | hGLP-1R Potency, 1% HSA, EC50 [pM] (human GLP-1 receptor [4]): 101 pM | hGIPR Potency, 1% HSA, EC50 [pM] (human GIP receptor [5]): 63.2 pM | hAMYR3 Potency, 1% HSA, EC50 [pM] [6]: 70.2 pM
B5: Compound 63 (peptide)
peptide: H[Aib]HGTFTSDYSILLEEQAAREFIEWLLAGGPSK([AEEA-AEEA-γGlu-C18 diacid])GEASQLSTAALGRLSAELHTLATLPRTETGSGSP-NH2

hGLP-1R Potency, no HSA, EC50 [pM] (human GLP-1 receptor [1]): 4.86 pM | hGIPR Potency, no HSA, EC50 [pM] (human GIP receptor [2]): 1.89 pM | hAMYR3 Potency, no HSA, EC50 [pM] [3]: 2.84 pM | hGLP-1R Potency, 1% HSA, EC50 [pM] (human GLP-1 receptor [4]): 100 pM | hGIPR Potency, 1% HSA, EC50 [pM] (human GIP receptor [5]): 118 pM | hAMYR3 Potency, 1% HSA, EC50 [pM] [6]: 127 pM
B7: Compound 65 (peptide)
peptide: H[Aib]HGTFTSDYSILLEEQAAREFIEWLLAGGPSK([AEEA-AEEA-γGlu-C18 diacid])GEASQLSTAALGRLSAELHGLATLPRTETGSGSP-NH2
